Data taken from publication PMC13379236 (Cell reports, 2026).
Entries after “also recorded” stand apart in the source; their conditions may differ.

B1: NLRP1 Gly/N-degron: C-terminal fragment generated by 3C cleavage, which exposes the Gly/N-degron, begins at glycine-131 (protein)
chain: GSERRVLRQLPDTSGRRWREISASLLYQALPSSPDHESPSQESPNAPTSTAVLGSWGSPPQPSLAPREQEAPGTQWPLDETSGIYYTEIREREREKSEKGRPPWAAVVGTPPQAHTSLQPHHHPWEPSVRESLCSTWPWKNEDFNQKFTQLLLLQRPHPRSQDPLVKRSWPDYVEENRGHLIEIRDLFGPGLDTQEPRIVILQGAAGIGKSTLARQVKEAWGRGQLYGDRFQHVFYFSCRELAQSKVVSLAELIGKDGTATPAPIRQILSRPERLLFILDGVDEPGWVLQEPSSELCLHWSQPQPADALLGSLLGKTILPEASFLITARTTALQNLIPSLEQARWVEVLGFSESSRKEYFYRYFTDERQAIRAFRLVKSNKELWALCLVPWVSWLACTCLMQQMKRKEKLTLTSKTTTTLCLHYLAQALQAQPLGPQLRDLCSLAAEGIWQKKTLFSPDDLRKHGLDGAIISTFLKMGILQEHPIPLSYSFIHLCFQEFFAAMSYVLEDEKGRGKHSNCIIDLEKTLEAYGIHGLFGASTTRFLLGLLSDEGEREMENIFHCRLSQGRNLMQWVPSLQLLLQPHSLESLHCLYETRNKTFLTQVMAHFEEMGMCVETDMELLVCTFCIKFSRHVKKLQLIEGRQHRSTWSPTMVVLFRWVPVTDAYWQILFSVLKVTRNLKELDLSGNSLSHSAVKSLCKTLRRPRCLLETLRLAGCGLTAEDCKDLAFGLRANQTLTELDLSFNVLTDAGAKHLCQRLRQPSCKLQRLQLVSCGLTSDCCQDLASVLSASPSLKELDLQQNNLDDVGVRLLCEGLRHPACKLIRLGLDQTTLSDEMRQELRALEQEKPQLLIFSRRKPSVMTPTEGLDTGEMSNSTSSLKRQRLGSERAASHVAQANLKLLDVSKIFPIAEIAEESSPEVVPVELLCVPSPASQGDLHTKPLGTDDDFWGPTGPVATEVVDKEKNLYRVHFPVAGSYRWPNTGLCFVMREAVTVEIEFCVWDQFLGEINPQHSWMVAGPLLDIKAEPGAVEAVHLPHFVALQGGHVDTSLFQMAHFKEEGMLLEKPARVELHHIVLENPSFSPLGVLLKMIHNALRFIPVTSVVLLYHRVHPEEVTFHLYLIPSDCSIRKAIDDLEMKFQFVRIHKPPPLTPLYMGCRYTVSGSGSGMLEILPKELELCYRSPGEDQLFSEFYVGHLGSGIRLQVKDKKDETLVWEALVKPGDLMPATTLIPPARIAVPSPLDAPQLLHFVDQYREQLIARVTSVEVVLDKLHGQVLSQEQYERVLAENTRPSQMRKLFSLSQSWDRKCKDGLYQALKETHPHLIMELWEKGSKKGLLPLSS
B2: E133K: E133K mutation of NLRP1 (residue E3 of the Gly/N-degron) (protein)
chain: GSKRRVLRQLPDTSGRRWREISASLLYQALPSSPDHESPSQESPNAPTSTAVLGSWGSPPQPSLAPREQEAPGTQWPLDETSGIYYTEIREREREKSEKGRPPWAAVVGTPPQAHTSLQPHHHPWEPSVRESLCSTWPWKNEDFNQKFTQLLLLQRPHPRSQDPLVKRSWPDYVEENRGHLIEIRDLFGPGLDTQEPRIVILQGAAGIGKSTLARQVKEAWGRGQLYGDRFQHVFYFSCRELAQSKVVSLAELIGKDGTATPAPIRQILSRPERLLFILDGVDEPGWVLQEPSSELCLHWSQPQPADALLGSLLGKTILPEASFLITARTTALQNLIPSLEQARWVEVLGFSESSRKEYFYRYFTDERQAIRAFRLVKSNKELWALCLVPWVSWLACTCLMQQMKRKEKLTLTSKTTTTLCLHYLAQALQAQPLGPQLRDLCSLAAEGIWQKKTLFSPDDLRKHGLDGAIISTFLKMGILQEHPIPLSYSFIHLCFQEFFAAMSYVLEDEKGRGKHSNCIIDLEKTLEAYGIHGLFGASTTRFLLGLLSDEGEREMENIFHCRLSQGRNLMQWVPSLQLLLQPHSLESLHCLYETRNKTFLTQVMAHFEEMGMCVETDMELLVCTFCIKFSRHVKKLQLIEGRQHRSTWSPTMVVLFRWVPVTDAYWQILFSVLKVTRNLKELDLSGNSLSHSAVKSLCKTLRRPRCLLETLRLAGCGLTAEDCKDLAFGLRANQTLTELDLSFNVLTDAGAKHLCQRLRQPSCKLQRLQLVSCGLTSDCCQDLASVLSASPSLKELDLQQNNLDDVGVRLLCEGLRHPACKLIRLGLDQTTLSDEMRQELRALEQEKPQLLIFSRRKPSVMTPTEGLDTGEMSNSTSSLKRQRLGSERAASHVAQANLKLLDVSKIFPIAEIAEESSPEVVPVELLCVPSPASQGDLHTKPLGTDDDFWGPTGPVATEVVDKEKNLYRVHFPVAGSYRWPNTGLCFVMREAVTVEIEFCVWDQFLGEINPQHSWMVAGPLLDIKAEPGAVEAVHLPHFVALQGGHVDTSLFQMAHFKEEGMLLEKPARVELHHIVLENPSFSPLGVLLKMIHNALRFIPVTSVVLLYHRVHPEEVTFHLYLIPSDCSIRKAIDDLEMKFQFVRIHKPPPLTPLYMGCRYTVSGSGSGMLEILPKELELCYRSPGEDQLFSEFYVGHLGSGIRLQVKDKKDETLVWEALVKPGDLMPATTLIPPARIAVPSPLDAPQLLHFVDQYREQLIARVTSVEVVLDKLHGQVLSQEQYERVLAENTRPSQMRKLFSLSQSWDRKCKDGLYQALKETHPHLIMELWEKGSKKGLLPLSS

Test system: ZYG11B
Type: cell-based, human

Molecule | binding to ZYG11B Extended Surface I mutants | binding to ZYG11B Gly-pocket mutants | binding to ZYG11B R466A (Extended Surface II) | interaction of NLRP1 mutants with ZYG11B
B1 | decreases the binding | abolishes the binding | relatively strong reduction | –
B2 | – | – | – | decreases the interaction; also recorded: reduced binding to ZYG11B
